This note sets out measurements from US20250339531A1, “DUX4 POLYPEPTIDES AND NUCLEIC ACIDS FOR TREATING INFLAMMATORY AND AUTOIMMUNE CONDITIONS” (Fred Hutchinson Cancer Center, priority 2021, published 2025).

This test has as its system proteins that co-immunoprecipitated with DUX4-CTD constructs expressed in MB135 myoblasts. The experiment in a line: LC-MS of proteins co-immunoprecipitated with DUX4-CTD (Table 1) and western validation. Type of test: binding, human. Further details: key to 4. mL1dL2 + Dox + IFNG / 4. + IFNG mix / 4. longCTD + Dox + IFNG / 3. + IFNg + Dox longCTD / 3. + Dox longCTD / 3. + IFNG longCTD: peptide-spectrum matches (PSMs) per protein. The note with it: for 4. longCTD + Dox + IFNG: LC-MS counts of the listed protein co-immunoprecipitated with DUX4-CTD bait longCTD; for 3. + Dox longCTD / 3. + IFNg + Dox longCTD: bait longCTD; for 3. + Dox longCTD: experiment 3, Dox only; for 3. + IFNg + Dox longCTD: experiment 3, IFNg + Dox; for SUM of PSMS: sum over all samples. The procedure, abridged:
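Two independent experiments compared uninduced, doxycycline and doxycycline+IFNG MB135iDUX4-CTD (plus MB135iDUX4mL1dL2) myoblasts. Anti-FLAG pulldowns (3 h, 4 °C) were eluted in LDS buffer for western validation or with FLAG peptide for trypsin digestion and Orbitrap LC-MS; hits needed ≥2 PSMs in both experiments, ranked by total PSMs.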

[1] abbreviates: LC-MS counts of the listed protein co-immunoprecipitated with DUX4-CTD bait mL1dL2, experiment 4, Dox + IFNG.

B1: Q92973 (protein, UniProt Q92973 1-898, looked up)
chain: MVWDRQTKMEYEWKPDEQGLQQILQLLKESQSPDTTIQRTVQQKLEQLNQYPDFNNYLIFVLTKLKSEDEPTRSLSGLILKNNVKAHFQNFPNGVTDFIKSECLNNIGDSSPLIRATVGILITTIASKGELQNWPDLLPKLCSLLDSEDYNTCEGAFGALQKICEDSAEILDSDVLDRPLNIMIPKFLQFFKHSSPKIRSHAVACVNQFIISRTQALMLHIDSFIENLFALAGDEEPEVRKNVCRALVMLLEVRMDRLLPHMHNIVEYMLQRTQDQDENVALEACEFWLTLAEQPICKDVLVRHLPKLIPVLVNGMKYSDIDIILLKGDVEEDETIPDSEQDIRPRFHRSRTVAQQHDEDGIEEEDDDDDEIDDDDTISDWNLRKCSAAALDVLANVYRDELLPHILPLLKELLFHHEWVVKESGILVLGAIAEGCMQGMIPYLPELIPHLIQCLSDKKALVRSITCWTLSRYAHWVVSQPPDTYLKPLMTELLKRILDSNKRVQEAACSAFATLEEEACTELVPYLAYILDTLVFAFSKYQHKNLLILYDAIGTLADSVGHHLNKPEYIQMLMPPLIQKWNMLKDEDKDLFPLLECLSSVATALQSGFLPYCEPVYQRCVNLVQKTLAQAMLNNAQPDQYEAPDKDFMIVALDLLSGLAEGLGGNIEQLVARSNILTLMYQCMQDKMPEVRQSSFALLGDLTKACFQHVKPCIADFMPILGTNLNPEFISVCNNATWAIGEISIQMGIEMQPYIPMVLHQLVEIINRPNTPKTLLENTAITIGRLGYVCPQEVAPMLQQFIRPWCTSLRNIRDNEEKDSAFRGICTMISVNPSGVIQDFIFFCDAVASWINPKDDLRDMFCKILHGFKNQVGDENWRRFSDQFPLPLKERLAAFYGV
modifications: full-length
For B1, the “3. + Dox longCTD” value was determined as 1, the “3. + IFNg + Dox longCTD” value amounted to 4 and the “SUM of PSMS” value is listed as 14. The “4. longCTD + Dox + IFNG” value (experiment 4, Dox + IFNG) amounted to 3. Further, under setting [1], the “4. mL1dL2 + Dox + IFNG” value came to 6.

B2: Q16576 (protein, UniProt Q16576 1-425, looked up)
chain: MASKEMFEDTVEERVINEEYKIWKKNTPFLYDLVMTHALQWPSLTVQWLPEVTKPEGKDYALHWLVLGTHTSDEQNHLVVARVHIPNDDAQFDASHCDSDKGEFGGFGSVTGKIECEIKINHEGEVNRARYMPQNPHIIATKTPSSDVLVFDYTKHPAKPDPSGECNPDLRLRGHQKEGYGLSWNSNLSGHLLSASDDHTVCLWDINAGPKEGKIVDAKAIFTGHSAVVEDVAWHLLHESLFGSVADDQKLMIWDTRSNTTSKPSHLVDAHTAEVNCLSFNPYSEFILATGSADKTVALWDLRNLKLKLHTFESHKDEIFQVHWSPHNETILASSGTDRRLNVWDLSKIGEEQSAEDAEDGPPELLFIHGGHTAKISDFSWNPNEPWVICSVSEDNIMQIWQMAENIYNDEESDVTTSELEGQGS
modifications: full-length
Turning to B2, the “3. + IFNg + Dox longCTD” value is given as 4 and the “SUM of PSMS” value is on record as 25. Further, where the note is “experiment 4, Dox + IFNG”, the “4. longCTD + Dox + IFNG” value was found to be 5.

B3: P31947 (protein, UniProt P31947 1-248, looked up)
chain: MERASLIQKAKLAEQAERYEDMAAFMKGAVEKGEELSCEERNLLSVAYKNVVGGQRAAWRVLSSIEQKSNEEGSEEKGPEVREYREKVETELQGVCDTVLGLLDSHLIKEAGDAESRVFYLKMKGDYYRYLAEVATGDDKKRIIDSARSAYQEAMDISKKEMPPTNPIRLGLALNFSVFHYEIANSPEEAISLAKTTFDEAMADLHTLSEDSYKDSTLIMQLLRDNLTLWTADNAGEEGGEAPQEPQS
modifications: full-length
As for B3, the “3. + IFNg + Dox longCTD” value is 1 and the “SUM of PSMS” value turned out to be 8. Also, the “4. longCTD + Dox + IFNG” value (experiment 4, Dox + IFNG) turned out to be 6. Also, the “4. + IFNG mix” value (LC-MS counts of the listed protein in anti-FLAG co-IP, experiment 4, IFNG, no doxycycline, mix, MB135 myoblasts) worked out at 1.

B4: P42224 (protein, UniProt P42224 1-750, looked up)
chain: MSQWYELQQLDSKFLEQVHQLYDDSFPMEIRQYLAQWLEKQDWEHAANDVSFATIRFHDLLSQLDDQYSRFSLENNFLLQHNIRKSKRNLQDNFQEDPIQMSMIIYSCLKEERKILENAQRFNQAQSGNIQSTVMLDKQKELDSKVRNVKDKVMCIEHEIKSLEDLQDEYDFKCKTLQNREHETNGVAKSDQKQEQLLLKKMYLMLDNKRKEVVHKIIELLNVTELTQNALINDELVEWKRRQQSACIGGPPNACLDQLQNWFTIVAESLQQVRQQLKKLEELEQKYTYEHDPITKNKQVLWDRTFSLFQQLIQSSFVVERQPCMPTHPQRPLVLKTGVQFTVKLRLLVKLQELNYNLKVKVLFDKDVNERNTVKGFRKFNILGTHTKVMNMEESTNGSLAAEFRHLQLKEQKNAGTRTNEGPLIVTEELHSLSFETQLCQPGLVIDLETTSLPVVVISNVSQLPSGWASILWYNMLVAEPRNLSFFLTPPCARWAQLSEVLSWQFSSVTKRGLNVDQLNMLGEKLLGPNASPDGLIPWTRFCKENINDKNFPFWLWIESILELIKKHLLPLWNDGCIMGFISKERERALLKDQQPGTFLLRFSESSREGAITFTWVERSQNGGEPDFHAVEPYTKKELSAVTFPDIIRNYKVMAAENIPENPLKYLYPNIDKDHAFGKYYSRPKEAPEPMELDGPKGTGYIKTELISVSEVHPSRLQTTDNLLPMSPEEFDEVSRIVGSVEFDSMMNTV
modifications: full-length
Turning to B4, the “3. + IFNg + Dox longCTD” value came to 3 and the “SUM of PSMS” value is recorded as 43. The “4. longCTD + Dox + IFNG” value (experiment 4, Dox + IFNG) is 19.

B5: HNRNPH1 (protein)
chain: MMLGTEGGEGFVVKVRGLPWSCSADEVQRFFSDCKIQNGAQGIRFIYTREGRPSGEAFVELESEDEVKLALKKDRETMGHRYVEVFKSNNVEMDWVLKHTGPNSPDTANDGFVRLRGLPFGCSKEEIVQFFSGLEIVPNGITLPVDFQGRSTGEAFVQFASQEIAEKALKKHKERIGHRYIEIFKSSRAEVRTHYDPPRKLMAMQRPGPYDRPGAGRGYNSIGRGAGFERMRRGAYGGGYGGYDDYNGYNDGYGFGSDRFGRDLNYCFSGMSDHRYGDGGSTFQSTTGHCVHMRGLPYRATENDIYNFFSPLNPVRVHIEIGPDGRVTGEADVEFATHEDAVAAMSKDKANMQHRYVELFLNSTAGASGGAYEHRYVELFLNSTAGASGGAYGSQMMGGMGLSNQSSYGGPASQQLSGGYGGGYGGQSSMSGYGNQGAVNSSYYSSGSRASMGVNGMGGLSSMSSMSGGWGM
Consider B5, for which, where the note is “LC-MS value per protein co-immunoprecipitated with DUX4-CTD construct mL1dL2 in MB135 myoblasts, + Dox + IFNG, kind of count not given”, the “4. mL1dL2 + Dox + IFNG” value is 7.

B6: O95373 (protein, UniProt O95373 1-1038, looked up)
chain: MDPNTIIEALRGTMDPALREAAERQLNEAHKSLNFVSTLLQITMSEQLDLPVRQAGVIYLKNMITQYWPDRETAPGDISPYTIPEEDRHCIRENIVEAIIHSPELIRVQLTTCIHHIIKHDYPSRWTAIVDKIGFYLQSDNSACWLGILLCLYQLVKNYEYKKPEERSPLVAAMQHFLPVLKDRFIQLLSDQSDQSVLIQKQIFKIFYALVQYTLPLELINQQNLTEWIEILKTVVNRDVPNETLQVEEDDRPELPWWKCKKWALHILARLFERYGSPGNVSKEYNEFAEVFLKAFAVGVQQVLLKVLYQYKEKQYMAPRVLQQTLNYINQGVSHALTWKNLKPHIQGIIQDVIFPLMCYTDADEELWQEDPYEYIRMKFDVFEDFISPTTAAQTLLFTACSKRKEVLQKTMGFCYQILTEPNADPRKKDGALHMIGSLAEILLKKKIYKDQMEYMLQNHVFPLFSSELGYMRARACWVLHYFCEVKFKSDQNLQTALELTRRCLIDDREMPVKVEAAIALQVLISNQEKAKEYITPFIRPVMQALLHIIRETENDDLTNVIQKMICEYSEEVTPIAVEMTQHLAMTFNQVIQTGPDEEGSDDKAVTAMGILNTIDTLLSVVEDHKEITQQLEGICLQVIGTVLQQHVLEFYEEIFSLAHSLTCQQVSPQMWQLLPLVFEVFQQDGFDYFTDMMPLLHNYVTVDTDTLLSDTKYLEMIYSMCKKVLTGVAGEDAECHAAKLLEVIILQCKGRGIDQCIPLFVEAALERLTREVKTSELRTMCLQVAIAALYYNPHLLLNTLENLRFPNNVEPVTNHFITQWLNDVDCFLGLHDRKMCVLGLCALIDMEQIPQVLNQVSGQILPAFILLFNGLKRAYACHAEHENDSDDDDEAEDDDETEELGSDEDDIDEDGQEYLEILAKQAGEDGDDEDWEEDDAEETALEGYSTIIDDEDNPVDEYQIFKAIFQTIQNRNPVWYQALTHGLNEEQRKQLQDIATLADQRRAAHESKMIEKHGGYKFSAPVVPSSFNFGGPAPGMN
modifications: full-length
On to B6, for which the “3. + Dox longCTD” value worked out at 4, the “3. + IFNg + Dox longCTD” value is recorded as 8 and the “SUM of PSMS” value was 16. The “4. longCTD + Dox + IFNG” value (experiment 4, Dox + IFNG) was determined as 1. For the same molecule, under setting [1], the “4. mL1dL2 + Dox + IFNG” value is listed as 3.
